Reference: publication PMC7141386, “Extracellular CIRP induces macrophage endotoxin tolerance through IL-6R–mediated STAT3 activation” (JCI Insight, 2020)

T1: recombinant human IL-6R alpha protein Leu20-Asp358 (human, UniProt P08887 20-358)
T1 construct: human IL-6 receptor alpha, Leu20-Asp358; no tags in the Biacore assay; also called rhIL-6R; IL-6 receptor; source: bought: R&D Systems, Bio-Techne; Spodoptera frugiperda Sf21, baculovirus-derived
T1 sequence (looked up): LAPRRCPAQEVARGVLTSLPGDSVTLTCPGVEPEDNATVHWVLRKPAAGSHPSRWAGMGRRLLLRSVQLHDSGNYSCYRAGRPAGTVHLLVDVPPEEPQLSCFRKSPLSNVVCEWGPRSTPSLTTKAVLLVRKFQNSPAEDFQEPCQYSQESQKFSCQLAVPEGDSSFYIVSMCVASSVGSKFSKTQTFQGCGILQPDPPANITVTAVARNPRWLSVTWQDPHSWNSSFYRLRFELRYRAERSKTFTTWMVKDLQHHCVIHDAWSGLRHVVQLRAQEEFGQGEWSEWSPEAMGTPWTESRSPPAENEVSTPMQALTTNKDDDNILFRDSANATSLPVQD

T2: mouse IL-6 receptor on peritoneal macrophages (mouse (endogenous in peritoneal …, UniProt P22272 20-460))
T2 construct: IL-6 receptor alpha, mouse, endogenous on peritoneal macrophages, detected with goat anti-mouse IL-6R antibody; also called IL-6Rα; source: endogenous, on murine peritoneal macrophages
T2 sequence (looked up): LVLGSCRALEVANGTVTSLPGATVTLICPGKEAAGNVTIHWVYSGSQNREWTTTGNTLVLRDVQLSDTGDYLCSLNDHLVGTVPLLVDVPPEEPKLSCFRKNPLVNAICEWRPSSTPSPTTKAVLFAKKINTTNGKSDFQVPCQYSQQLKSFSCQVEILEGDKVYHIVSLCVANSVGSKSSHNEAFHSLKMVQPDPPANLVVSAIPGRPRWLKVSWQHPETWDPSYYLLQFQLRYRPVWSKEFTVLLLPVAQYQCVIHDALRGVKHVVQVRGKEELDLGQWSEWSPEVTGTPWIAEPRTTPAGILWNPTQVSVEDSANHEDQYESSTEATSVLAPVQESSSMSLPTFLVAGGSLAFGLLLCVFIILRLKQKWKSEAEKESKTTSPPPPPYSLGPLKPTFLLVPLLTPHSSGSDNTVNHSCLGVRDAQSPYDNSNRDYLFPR


Assays:
[1] = biological target: T1, recombinant human IL-6R alpha protein …; experiment: SPR; Biacore 3000; rhIL-6R immobilised on a CM5 chip (amine coupling, 10 mM sodium acetate pH 4.5); rhCIRP as analyte 0-1.0 uM; 1x PBS with 0.01% Tween-20, pH 7.4; 30 uL/min, 25°C; global fit to the Langmuir model for 1:1 binding; conditions: both partners purified
[2] = biological target: T2, mouse IL-6 receptor on peritoneal …; experiment: FRET or BRET; peritoneal macrophages in a 96-well plate treated with rmCIRP for 10 minutes at 4°C, fixed with 4% paraformaldehyde, stained with anti-CIRP and anti-IL-6R or anti-CD11b antibodies and Cy3- and Cy5-labelled secondary antibodies; FRET units from cell-associated fluorescence (Biotek Synergy Neo2); conditions: one partner purified

Row | Kd [1] | fold increase in FRET units against the negative control CD11b [2] | Binder
1 | 98 nM |  | recombinant human CIRP (cold-inducible RNA-binding protein) (natural protein, UniProt Q14011 1-172, looked up, also called rhCIRP; eCIRP; source: bought: Origene) MASDEGKLFVGGLSFDTNEQSLEQVFSKYGQISEVVVVKDRETQRSRGFGFVTFENIDDAKDAMMAMNGKSVDGRQIRVDQAGKSSDNRSRGYRGGSAGGRGFFRGGRGRGRGFSRGGGDRGYGGNRFESRSGGYGGSRDYYSSRSQSGGYSDRSSGGSYRDSYDSYATHNE
2 |  | 17 fold | recombinant murine CIRP (cold-inducible RNA-binding protein) (natural protein, mouse, UniProt P60824 1-172, looked up, also called rmCIRP) MASDEGKLFVGGLSFDTNEQALEQVFSKYGQISEVVVVKDRETQRSRGFGFVTFENIDDAKDAMMAMNGKSVDGRQIRVDQAGKSSDNRSRGYRGGSAGGRGFFRGGRSRGRGFSRGGGDRGYGGGRFESRSGGYGGSRDYYASRSQGGSYGYRSSGGSYRDSYDSYATHNE
